Experimental data from patent US11402384B2 (Duke University, priority 2015, dated 2022).

Experiment: Ratiometric fluorescence glucose titration of fluorescent conjugates
Format: binding
Set-up: key to Shape (fluorescence response to glucose) / Change (fluorescence response to glucose): m, monochromatic; d, dichromatic (i.e. spectral shape change); 0, no change
Conditions: tsGBP2 cysteine scan
Description: Semi-synthetic FRSs can be engineered by site-specifically attaching thiol-reactive, environmentally sensitive fluorophores that respond to ligand-mediated conformational changes. Identification of FRS candidates that can be used for sensing applications comprises three steps: • 1. Cysteine scan. Mutant glucose-binding proteins containing single cysteines are constructed for site-specific attachment of thiol-reactive fluorophores. […] Candidate positions fall into three classes: endosteric, replacing a residue that contacts the ligand directly; peristeric, located at the rim of the binding site; allosteric (Marvin et al., 1997, Proc Natl Acad Sci USA, 94, 4366-71; Marvin, 1998, J Am Chem Soc, 120, 7-11), located outside the binding site at sites that undergo local structural changes in concert with the hinge-bending motion. • 2. Fluorophore screening. Thiol-reactive, environmentally sensitive fluorophores are attached to each cysteine mutant prepared in step 1. • 3. Evaluation of the glucose-mediated change of all the fluorescent conjugates prepared in step 2. Responses to ligand binding in which there is both a change in fluorescence emission intensity and spectral shape are essential for chemometric applications, because such changes enable ratiometric measurements. Changes in spectral shape typically are accompanied by a shift in the wavelength of the emission intensity maxima. Three classes of fluorescent responses are possible: • i. No response. • ii. Monochromatic response (emission intensity increases or decreases without a change in spectral shape) • iii.
Determination of temperature- and ligand-dependent fluorescence landscapes. […] Temperatures were advanced in 1K steps.
Determination of emission intensity spectra.
2 For a single glucose-binding site, the fractional saturation is given by […]

Row | Molecule | Shape (fluorescence response to glucose) (Badan conjugate) | Shape (fluorescence response to glucose) (Acrylodan conjugate)
1 | W224C Badan: tsGBP2_C224 (SEQ ID NO: 28) Badan conjugate (conjugate, Badan conjugate; tsGBP2_C224 (224C substitution mutant with signal peptide replaced with M and a GGSHHHHHH at C-terminus)) MKLEIFSWWAGDEGPALEALIRLYKQKYPGVEVINATVTGGAGVNAKAVLKTRMLGGDPPDTFQVHAGQELIGTWVVADRMEDLTSLFRQEGWLQAFPKGLIDLLSYKGGIWSVPVNIHRSNVMWYIPAKLKEWGVTPPKTWAEFLATAQTLKRKGLEAPLALGENWTQQHLWESVALATLGADGWNNLWSGKLKFTDPKAVAVWETFGKVLDAANKDAAGLSCQQAVDRVVQGKAAFNIMGDWAAGYMSTTLKLKPGTDFAWTPSPGTSGIFMMLSDSFGLPKGAKNRQNAINWLKLVGSKEGQDTFNPLKGSIAARLDSDPAKYNAYGQSAMKDWKSNRIVGSLVHGAVAPESFMSQFGTVMEIFLQSRNPQAAANAAQAIANQVGLGRGGSHHHHHH | 0 | 
2 | Q225C Acrylodan: tsGBP2_C225 (SEQ ID NO: 29) Acrylodan conjugate (conjugate, Acrylodan conjugate; tsGBP2_C225 (225C substitution mutant with signal peptide replaced with M and a GGSHHHHHH at C-terminus)) MKLEIFSWWAGDEGPALEALIRLYKQKYPGVEVINATVTGGAGVNAKAVLKTRMLGGDPPDTFQVHAGQELIGTWVVADRMEDLTSLFRQEGWLQAFPKGLIDLLSYKGGIWSVPVNIHRSNVMWYIPAKLKEWGVTPPKTWAEFLATAQTLKRKGLEAPLALGENWTQQHLWESVALATLGADGWNNLWSGKLKFTDPKAVAVWETFGKVLDAANKDAAGLSWCQAVDRVVQGKAAFNIMGDWAAGYMSTTLKLKPGTDFAWTPSPGTSGIFMMLSDSFGLPKGAKNRQNAINWLKLVGSKEGQDTFNPLKGSIAARLDSDPAKYNAYGQSAMKDWKSNRIVGSLVHGAVAPESFMSQFGTVMEIFLQSRNPQAAANAAQAIANQVGLGRGGSHHHHHH |  | m
3 | Q225C Badan: tsGBP2_C225 (SEQ ID NO: 29) Badan conjugate (conjugate, Badan conjugate; tsGBP2_C225 (225C substitution mutant with signal peptide replaced with M and a GGSHHHHHH at C-terminus)) MKLEIFSWWAGDEGPALEALIRLYKQKYPGVEVINATVTGGAGVNAKAVLKTRMLGGDPPDTFQVHAGQELIGTWVVADRMEDLTSLFRQEGWLQAFPKGLIDLLSYKGGIWSVPVNIHRSNVMWYIPAKLKEWGVTPPKTWAEFLATAQTLKRKGLEAPLALGENWTQQHLWESVALATLGADGWNNLWSGKLKFTDPKAVAVWETFGKVLDAANKDAAGLSWCQAVDRVVQGKAAFNIMGDWAAGYMSTTLKLKPGTDFAWTPSPGTSGIFMMLSDSFGLPKGAKNRQNAINWLKLVGSKEGQDTFNPLKGSIAARLDSDPAKYNAYGQSAMKDWKSNRIVGSLVHGAVAPESFMSQFGTVMEIFLQSRNPQAAANAAQAIANQVGLGRGGSHHHHHH | m | 
4 | W244C Badan: tsGBP2_C244 (SEQ ID NO: 30) Badan conjugate (conjugate, Badan conjugate; tsGBP2_C244 (244C substitution mutant with signal peptide replaced with M and a GGSHHHHHH at C-terminus)) MKLEIFSWWAGDEGPALEALIRLYKQKYPGVEVINATVTGGAGVNAKAVLKTRMLGGDPPDTFQVHAGQELIGTWVVADRMEDLTSLFRQEGWLQAFPKGLIDLLSYKGGIWSVPVNIHRSNVMWYIPAKLKEWGVTPPKTWAEFLATAQTLKRKGLEAPLALGENWTQQHLWESVALATLGADGWNNLWSGKLKFTDPKAVAVWETFGKVLDAANKDAAGLSWQQAVDRVVQGKAAFNIMGDCAAGYMSTTLKLKPGTDFAWTPSPGTSGIFMMLSDSFGLPKGAKNRQNAINWLKLVGSKEGQDTFNPLKGSIAARLDSDPAKYNAYGQSAMKDWKSNRIVGSLVHGAVAPESFMSQFGTVMEIFLQSRNPQAAANAAQAIANQVGLGRGGSHHHHHH | m | 
